Reference: the supplement of paper PMC12338614

B1: library; numbered along this chain (parent)
chain: MEVVDPQQLGMFTEGELMSVGMDTFIHRIDSTEVIYQPRRKRAKLIGKYLMGDLLGEGSYGKVKEVLDSETLCRRAVKILKKKKLRRIPNGEANVKKEIQLLRRLRHKNVIQLVDVLYNEEKQKMYMVMEYCVCGMQEMLDSVPEKRFPVCQAHGYFCQLIDGLEYLHSQGIVHKDIKPGNLLLTTGGTLKISDLGVAEALHPFAADDTCRTSQGSPAFQPPEIANGLDTFSGFKVDIWSAGVTLYNITTGLYPFEGDNIYKLFENIGKGSYAIPGDCGPPLSDLLKGMLEYEPAKRFSIRQIRQHSWFRKKHPPAEAPVPIPPSPDTKDRWRSMTVVPYLEDLHGADEDEDLFDIEDDIIYTQDFTVPGQVPEEEASHNGQRRGLPKAVCMNGTEAAQLSTKSRAEGRAPNPARKACSASSKIRRLSACKQQ

Variants of: B1
Assay: STK11 functional score (HeLa growth suppression), rescaled enrichment; synonymous median = 1, nonsense median = 0 (normalised score)
Details: with HeLa; variant type: missense
How it was run: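 Functional scores are post/pre-selection log ratios corrected to wild type, rescaled to synonymous and nonsense medians, merged over codons and replicate transfections, and given bootstrapped error. They come from POPCode libraries of codon-optimised STK11 integrated by Bxb1 at an AAVS1 landing pad in HeLa, three regions each transfected three times, with BFP-negative, mCherry-positive integrants sorted by FACS and tiled gDNA amplicons sequenced on NextSeq.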

STK11 functional score, by site and new letter:
P319: M 1.39 | V 0.772 | S 1.4 | Q 1.39 | R 1.53 | F 1.47 | G 1.53 | L 1.3 | D 1.52 | N 1.48 | H 1.16 | A 1.37 | Y 1.46 | W 0.513 | C 0.642
P326: M 1.45 | E 1.57 | L 1.34 | G 1.52 | V 0.813 | H 0.87 | S 1.36 | A 0.8 | Y 0.263 | C 1.34 | R 1.53
A318: D 1.51 | S 1.33 | L 1.58 | Y 1.63 | V 1.11 | F 1.6 | M 0.577 | P 1.59 | Q 1.61 | R 1.43 | I 1.49 | T 1.17 | C 1.23
S325: Q 1.42 | M 0.0951 | T 1.17 | I 1.56 | G 0.96 | V 0.786 | P 1.51 | L 1.57 | R 1.58 | A 1.05 | W 0.629 | H 1.54 | Y 0.029 | N 1.47 | E 1.24 | D 1.09
P315: A 1.07 | V 1.17 | Q 1.34 | S 1.41 | M 1.6 | K 1.56 | G 1.29 | H 1.34 | N 1.51 | E 1.57 | C 1.17 | R 1.32 | D 1.51 | W 0.723 | Y 1.29 | T 1.2 | I 1.21 | L 1.42
S334: V 1.31 | E 1.53 | H 1.05 | N 1.58 | M 1.05 | P 1.43 | Q 1.53 | R 0.671 | D 1.45 | C 0.325 | F 1.1 | I 0.935 | Y 1.55 | T 1.18 | A 0.943 | G 1.35 | W 0.649 | L 1.24
V320: F 1.07 | L 0.723 | C 0.788 | I 1.59 | Y 1.55 | P 1.56 | A 1.55 | M 1.47 | S 1.48 | H 1.59 | T 1.57 | W 0.717 | R 1.49
W332: V 1.59 | M 1.42 | A 1.56 | R 1.55 | G 1.55 | Q 1.55 | L 1.55 | P 1.63 | C 0.361 | S 1.21 | E 1.61
H313: L 1.48 | C 1.26 | Y 0.272 | Q 0.889 | N 0.48 | V 0.495 | A 1.33 | M 1.25 | W 1.05 | G 1.13 | P 0.624 | E 1.43 | S 1.17 | D 1.17 | I 1.45 | R -0.189
P323: M 1.55 | A 1.15 | D 1.33 | H 1.42 | K 1.58 | S 1.3 | W 0.993 | C 1.28 | V 1.01 | R 1.01 | Q 0.422 | L 0.92 | T 1.32 | F 1.36 | I 1.52 | E 1.56 | N 1.53 | G 1.13
K312: V 1.27 | Q 1.58 | R 1.57 | Y 1.2 | T 1.5 | W 1.53 | P 1.37 | S 1.29
I322: D 1.18 | T 0.984 | G -0.0839 | W 1.18 | V 1.08 | Q 0.336 | A 1.53 | M 0.829 | F 1.25 | L 0.886 | S 1.21 | C 1.17 | H 0.839 | E 1.11 | N 1.59 | R 1.11 | Y 0.925
P321: M 1.61 | V 1.41 | H 1.21 | A 0.987 | I 1.53 | Y 0.641 | N 1.03 | G 1.01 | W 1.6 | D 1.55 | S 1.42 | L 1.17 | R 1.26 | F 0.903
P314: N 1.53 | V 1.16 | Q 1.17 | A 1.13 | W 1.6 | G 1.07 | I 1.5 | R 1.26 | C 1.53 | F 1.18 | S 1.33 | M 1.62 | L 1.21 | T 1.54 | Y 0.95 | D 1.5 | E 1.54
D330: G 1.23 | N 1.44 | S 1.47 | I 1.33 | C 1.33 | A 1.18 | Q 0.163 | H 0.985 | R 1.47 | V 1.46 | T 1.59 | E 0.786 | M 1.58 | L 1.59
A316: P 0.694 | R 0.901 | L 0.961 | I 1.32 | Y 1.4 | Q 1.53 | M 1 | S 0.768 | F 1.19 | V 0.768 | G 1.25 | W 0.538
E317: Q 1.2 | M 0.316 | W 1.62 | C 1.49 | H 1.25 | A 1.53 | F 0.542 | I 1.55 | L 1.34 | R 1.58 | V 1.36 | D 1.57 | Y 1.04 | P 1.6 | G 1.56 | S 0.661 | N 1.6
D327: H 1.21 | V 1.31 | L 1.55 | T 1.6 | R 1.61 | A 1.28 | C 1.27 | Y 1.36 | W 1.57 | S 1.58 | I 1.6 | N 1.3 | P 1.59 | G 0.999
R333: I 1.49 | G 1.47 | P 1.64 | D 1.62 | S 1.55 | A 1.28 | K 1.61 | Y 1.55 | F 0.85 | H 1.05 | V 1.15 | L 1.32
P324: I 1.56 | W 0.731 | V 1.58 | T 1.15 | L 1.37 | A 1.35 | H 1.48 | K 0.708 | E 1.53 | R 1.17 | D 1.57 | G 1.36 | S 1.45 | M 0.794 | C 1.33
K329: L 1.42 | W 0.742 | R 0.535 | D 1.56 | Y 1.15 | I 1.25 | P 1.47 | A 1.58 | F 1.18 | Q 1.1 | E 1.32 | G 1.35 | N 1.36 | M 1.55 | S 0.673
T328: V 1.36 | D 1.5 | I 1.29 | E 1.5 | R 1.5 | N 0.554 | S 1.39 | L 1.03 | P 1.57 | W 1.59 | A 1.62 | H 1.52
R331: Y 1.35 | E 1.12 | G 1.41 | C 1.38 | D 1.24 | A 0.000385 | V 1.13 | I 1.16 | W 1.49 | N 1.35 | H -0.127 | S 1.32 | L 1.2 | P 1.54
M335: E 1.33 | C 1.36 | D 0.605 | A 1.51
